According to patent US20110059064A1:

Tests used:
[1] = target: T1, human voltage-gated potassium channel Kv1.3, expressed endogenously in human peripheral blood T cells (human), P22001
[2] = target: T1, human voltage-gated potassium channel …; remark: listed apart in the source
[3] = target: EGFP-tagged human IKCa1 Ca2+-activated K channel expressed in Cos-7 cells (human), O15554
[4] = target: human Kv1.2 channel expressed in Cos-7 cells (human), P16389
[5] = target: T2, mouse Kv1.1 channel stably expressed in L929 cells (mouse), P16388
T2 chain: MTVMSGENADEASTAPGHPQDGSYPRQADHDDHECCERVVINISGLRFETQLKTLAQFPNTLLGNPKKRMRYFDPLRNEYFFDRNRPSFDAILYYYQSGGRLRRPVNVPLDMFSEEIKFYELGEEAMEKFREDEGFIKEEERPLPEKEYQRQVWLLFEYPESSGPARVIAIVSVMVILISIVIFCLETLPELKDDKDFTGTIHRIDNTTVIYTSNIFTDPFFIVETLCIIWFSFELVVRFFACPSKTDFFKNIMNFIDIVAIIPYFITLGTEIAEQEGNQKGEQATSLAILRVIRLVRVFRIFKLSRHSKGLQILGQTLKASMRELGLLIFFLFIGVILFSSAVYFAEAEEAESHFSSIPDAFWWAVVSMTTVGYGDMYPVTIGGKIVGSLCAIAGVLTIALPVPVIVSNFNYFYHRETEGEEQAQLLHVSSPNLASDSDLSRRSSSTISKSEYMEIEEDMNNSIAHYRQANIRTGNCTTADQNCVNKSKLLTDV

T1 sequence (P22001 whole entry): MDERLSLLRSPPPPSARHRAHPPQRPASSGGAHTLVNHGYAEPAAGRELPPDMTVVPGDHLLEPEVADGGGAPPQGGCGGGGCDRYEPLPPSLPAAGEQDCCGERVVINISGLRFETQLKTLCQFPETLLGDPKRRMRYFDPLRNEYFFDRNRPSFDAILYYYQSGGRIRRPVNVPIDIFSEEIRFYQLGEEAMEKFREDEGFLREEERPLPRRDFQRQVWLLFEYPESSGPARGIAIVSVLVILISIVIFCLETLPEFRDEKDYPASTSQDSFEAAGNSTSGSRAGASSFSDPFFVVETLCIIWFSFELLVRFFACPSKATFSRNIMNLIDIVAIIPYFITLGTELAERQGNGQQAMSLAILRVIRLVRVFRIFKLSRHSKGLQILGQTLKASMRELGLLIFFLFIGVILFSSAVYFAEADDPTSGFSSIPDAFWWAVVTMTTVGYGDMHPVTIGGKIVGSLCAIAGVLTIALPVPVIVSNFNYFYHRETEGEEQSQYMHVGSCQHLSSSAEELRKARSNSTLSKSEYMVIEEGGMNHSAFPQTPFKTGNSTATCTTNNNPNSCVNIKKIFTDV
Chain of human Kv1.2 channel expressed in Cos-7 cells (human), P16389 (P16389 whole entry): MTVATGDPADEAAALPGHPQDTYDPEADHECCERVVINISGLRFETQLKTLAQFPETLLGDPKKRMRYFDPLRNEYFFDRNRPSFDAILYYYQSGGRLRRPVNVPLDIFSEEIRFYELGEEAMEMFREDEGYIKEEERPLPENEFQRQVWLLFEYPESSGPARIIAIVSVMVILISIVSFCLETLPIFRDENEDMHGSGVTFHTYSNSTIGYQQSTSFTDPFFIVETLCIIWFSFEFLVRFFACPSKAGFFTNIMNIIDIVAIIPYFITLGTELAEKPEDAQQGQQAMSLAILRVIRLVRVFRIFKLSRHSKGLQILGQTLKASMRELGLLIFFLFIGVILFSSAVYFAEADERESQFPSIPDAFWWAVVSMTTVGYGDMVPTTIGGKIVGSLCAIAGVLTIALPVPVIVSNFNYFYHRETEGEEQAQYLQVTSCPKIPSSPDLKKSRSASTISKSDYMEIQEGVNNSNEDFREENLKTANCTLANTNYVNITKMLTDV
Chain of EGFP-tagged human IKCa1 Ca2+-activated K channel expressed in Cos-7 cells (human), O15554 (O15554 whole entry): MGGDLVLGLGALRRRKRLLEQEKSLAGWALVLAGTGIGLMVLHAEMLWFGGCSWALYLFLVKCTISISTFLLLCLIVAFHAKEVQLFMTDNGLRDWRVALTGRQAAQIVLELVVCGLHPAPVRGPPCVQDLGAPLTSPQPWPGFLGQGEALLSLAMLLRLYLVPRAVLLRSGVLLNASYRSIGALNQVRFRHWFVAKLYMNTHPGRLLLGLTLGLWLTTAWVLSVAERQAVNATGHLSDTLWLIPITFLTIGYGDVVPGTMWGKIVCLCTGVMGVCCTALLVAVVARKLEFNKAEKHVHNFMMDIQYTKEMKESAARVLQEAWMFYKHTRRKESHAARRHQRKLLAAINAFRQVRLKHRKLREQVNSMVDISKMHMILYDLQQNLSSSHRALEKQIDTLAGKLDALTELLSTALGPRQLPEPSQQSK

For AAAISCVGSPECPPKCRAQGCKNGKCMNRKCKCYYC (modifications not checked) [Vm24 (native peptide purified from the venom of Vaejovis mexicanus smithi)], the koff [1] was 0.00026 s⁻¹, the time constant for washout [1] was 3800 s and the Kd [2] was 0.0029 nM. The Kd [3] was 14 nM, the selectivity for hKv1.3 over hIKCa1 (fold) [3] was > 4500 fold and the Kd [4] was 5 to 10 nM. For the same binder, the selectivity for hKv1.3 over hKv1.2 (fold) [4] was > 1500 fold, the Kd [5] was 30 to 40 nM and the selectivity for hKv1.3 over mKv1.1 (fold) [5] was > 10000 fold.
